# Data as given in the RNAGym collection of RNA variant scans (doi:10.1021/acssynbio.7b00057).
# B1: Pistol ribozyme (parent)
# chain: GGGUCGUUGUUCCAUAAUCGCGUGGAUAUGGCACGCAAGUUUCUACCGGGCACCGUAAAUGUCCGACUGGAGCCGUUCGGGCGGCUAUAAACAGACCUCAGGCCCGAAGCGUGGCGGCACCUGCCGCCGGUGGUAAAAAAGAUCGGAAGAGCACACGUCU
# Variants of: B1
# Assay: aptazyme ON/OFF ratio, guanine; higher = stronger switching; co-transcriptional cleavage with and without guanine
row,Variant,aptazyme ON/OFF ratio
1,U7G U8C G9A U11A C12G C13A,1.05
2,U7G U8C G9A U11A C12G C13G,1.06
3,U7G U8C G9A U11A C12G C13U,1.1
4,U7G U8C G9C U10G U11A C12G C13G,1.21
5,U7G U8C G9C U10G U11A C12G C13U,1.1
6,U7G U8C G9C U10G U11A C12G C13A,1.07
7,U7G U8C G9C C12U,1.28
8,U7G U8C G9C C12G,1.22
9,U7G U8C G9C C12A,1.12
10,U7G U8C G9C U10G U11A C12A,1.28
11,U7G U8C G9C U10G U11A C12U,1.04
12,U7G U8C G9C U10G U11A C12G,1.17
13,U7G U8C G9A U11C C12U C13U,1.08
14,U7G U8C G9A U11C C12U C13A,1.15
15,U7G U8C G9A U11C C12U C13G,1.12
16,U7G U8C G9C U10A U11G C12G C13A,1.08
17,U7G U8C G9C U10A U11G C12G C13G,1.12
18,U7G U8C G9C U10A U11G C12G C13U,1.1
19,U7G U8C G9C U10C U11A C13U,1.03
20,U7G U8C G9C U10C U11A C13G,1.11
21,U7G U8C G9C U10C U11A C13A,1.04
22,U7G U8C G9C U10A C12A C13A,1.08
23,U7G U8C G9C U10A C12A C13G,1.08
24,U7G U8C G9C U10A C12A C13U,1.05

row,Variant,aptazyme ON/OFF ratio
1,U7G U8C G9C U10A U11C C12U C13G,1.3
2,U7G U8C G9C U10A U11C C12U C13U,1.09
3,U7G U8C G9C U10A U11C C12U C13A,1.36
4,U7G U8C G9C U10A U11C C12G C13A,1.33
5,U7G U8C G9C U10A U11C C12G C13G,1.14
6,U7G U8C G9C U10A U11C C12G C13U,1.31
7,U7G U8C G9A U10G U11G C13G,1.28
8,U7G U8C G9A U10G U11G C13A,1.31
9,U7G U8C G9A U10G U11G C13U,1.38
10,U7G U8C G9A U11A C12U C13U,1.05
11,U7G U8C G9A U11A C12U C13G,1.08
12,U7G U8C G9A U11A C12U C13A,1.09
13,U7G U8C G9A U11A C13A,1.14
14,U7G U8C G9A U11A C13U,1.21
15,U7G U8C G9A U11A C13G,1.03
16,U7G U8C G9A U11G C13A,1.14
17,U7G U8C G9A U11G C13U,1.19
18,U7G U8C G9A U11G C13G,1.09
19,U7G U8C G9C,1.35
20,U7G U8C G9C U10A C12U C13A,1.03
21,U7G U8C G9C U10A C12U C13U,1.04
22,U7G U8C G9C U10A C12U C13G,1.01
23,U7G U8C G9A U11A C12A,1.2
24,U7G U8C G9A U11A C12U,1.36

row,Variant,aptazyme ON/OFF ratio
1,U7G U8C G9A U11A C12G,1.1
2,U7G U8C G9A U10G U11C C12A,1.3
3,U7G U8C G9A U10G U11C C12G,1.2
4,U7G U8C G9A U10G U11C C12U,1.09
5,U7G U8C G9C U10G C12G C13U,1.1
6,U7G U8C G9C U10G C12G C13G,1.07
7,U7G U8C G9C U10G C12G C13A,1.09
8,U7G U8C G9C U10C U11C C12A C13G,1.21
9,U7G U8C G9C U10C U11C C12A C13A,1.05
10,U7G U8C G9C U10C U11C C12A C13U,1.05
11,U7G U8C G9C U10G U11C C12U C13U,1.4
12,U7G U8C G9C U10G U11C C12U C13G,1.32
13,U7G U8C G9C U10G U11C C12U C13A,1.26
14,U7G U8C G9C U10C C12U C13U,1.04
15,U7G U8C G9C U10C C12U C13A,1.07
16,U7G U8C G9C U10C C12U C13G,1.13
17,U7G U8C G9C U10A C13G,1.07
18,U7G U8C G9C U10A C13A,1.08
19,U7G U8C G9C U10A C13U,1.07
20,U7G U8C G9A U10G C12U C13U,1.26
21,U7G U8C G9A U10G C12U C13A,1.12
22,U7G U8C G9A U10G C12U C13G,1.1
23,U7G U8C G9C U10C C12A C13A,1.08
24,U7G U8C G9C U10C C12A C13U,1.04

row,Variant,aptazyme ON/OFF ratio
1,U7G U8C G9C U10C C12A C13G,1.1
2,U7G U8C G9C U10G C13A,1.3
3,U7G U8C G9C U10G C13U,1.33
4,U7G U8C G9C U10G C13G,1.26
5,U7G U8C G9C U10A C12G C13A,1.06
6,U7G U8C G9C U10A C12G C13U,1.09
7,U7G U8C G9C U10A C12G C13G,1.05
8,U7G U8C G9C U10C C13A,1.06
9,U7G U8C G9C U10C C13U,1.15
10,U7G U8C G9C U10C C13G,1.21
11,U7G U8C G9A U10G U11A C13U,1.05
12,U7G U8C G9A U10G U11A C13G,1.04
13,U7G U8C G9A U10G U11A C13A,1.05
14,U7G U8C G9C U10A U11G C12U,1.26
15,U7G U8C G9C U10A U11G C12A,1.08
16,U7G U8C G9C U10A U11G C12G,1.17
17,U7G U8C G9C U11A,2.39
18,U7G U8C G9C U10C C12U,1.16
19,U7G U8C G9C U10C C12A,1.13
20,U7G U8C G9C U10C C12G,1.1
21,U7G U8C G9C U10C U11C C13U,0.999
22,U7G U8C G9C U10C U11C C13A,1.04
23,U7G U8C G9C U10C U11C C13G,1.36
24,U7G U8C G9C U10A U11C C12G,1.26

row,Variant,aptazyme ON/OFF ratio
1,U7G U8C G9C U10A U11C C12U,1.32
2,U7G U8C G9C U10A U11C C12A,1.33
3,U7G U8C G9C U10G U11G C12U C13U,1.12
4,U7G U8C G9C U10G U11G C12U C13A,1.09
5,U7G U8C G9C U10G U11G C12U C13G,1.09
6,U7G U8C G9A U10G U11C C12U C13G,1.16
7,U7G U8C G9A U10G U11C C12U C13A,1.12
8,U7G U8C G9A U10G U11C C12U C13U,1.12
9,U7G U8C G9C U10A U11G C12A C13G,1.12
10,U7G U8C G9C U10A U11G C12A C13U,1.11
11,U7G U8C G9C U10A U11G C12A C13A,1.1
12,U7G U8C G9C U10G U11C C12G C13U,1.19
13,U7G U8C G9C U10G U11C C12G C13G,1.15
14,U7G U8C G9C U10G U11C C12G C13A,1.29
15,U7G U8C G9A U10G U11A C12A,1.11
16,U7G U8C G9A U10G U11A C12U,1.06
17,U7G U8C G9A U10G U11A C12G,1.08
18,U7G U8C G9C C12A C13A,1.15
19,U7G U8C G9C C12A C13U,1.16
20,U7G U8C G9C C12A C13G,1.15
21,U7G U8C G9C U10C U11A C12A C13A,1.04
22,U7G U8C G9C U10C U11A C12A C13G,1.09
23,U7G U8C G9C U10C U11A C12A C13U,1.04
24,U7G U8C G9C C12U C13G,1.12

row,Variant,aptazyme ON/OFF ratio
1,U7G U8C G9C C12U C13U,1.21
2,U7G U8C G9C C12U C13A,1.1
3,U7G U8C G9A U11C C13G,1.06
4,U7G U8C G9A U11C C13A,1.34
5,U7G U8C G9A U11C C13U,1.21
6,U7G U8C G9C U10C U11G C12G C13G,1.09
7,U7G U8C G9C U10C U11G C12G C13A,1.1
8,U7G U8C G9C U10C U11G C12G C13U,1.05
9,U7G U8C G9C U10G U11C C12A C13A,1.34
10,U7G U8C G9C U10G U11C C12A C13G,1.18
11,U7G U8C G9C U10G U11C C12A C13U,1.36
12,U7G U8C G9A U11G,1.3
13,U7G U8C G9A U11C,1.4
14,U7G U8C G9A U11A,2.48
15,U7G U8C G9C U10G U11A C12U C13A,1.03
16,U7G U8C G9C U10G U11A C12U C13G,1.04
17,U7G U8C G9C U10G U11A C12U C13U,1.03
18,U7G U8C G9A U10G C12G,1.13
19,U7G U8C G9A U10G C12U,1.35
20,U7G U8C G9A U10G C12A,1.18
21,U7G U8C G9C U10C U11A C12U C13U,1.05
22,U7G U8C G9C U10C U11A C12U C13A,1.04
23,U7G U8C G9C U10C U11A C12U C13G,1.12
24,U7G U8C G9C U10A U11G C13U,1.18

row,Variant,aptazyme ON/OFF ratio
1,U7G U8C G9C U10A U11G C13G,1.15
2,U7G U8C G9C U10A U11G C13A,1.14
3,U7G U8C G9C U10G C12U,1.14
4,U7G U8C G9C U10G C12G,1.12
5,U7G U8C G9C U10G C12A,1.13
6,U7G U8C G9C U10A U11C,1.18
7,U7G U8C G9C U10A U11G,1.51
8,U7G U8C G9C U10A U11A,3.4
9,U7G U8C G9C U10A U11A C13G,1.1
10,U7G U8C G9C U10A U11A C13U,1.23
11,U7G U8C G9C U10A U11A C13A,1.09
12,U7G U8C G9C U10C U11C C12G C13A,1.09
13,U7G U8C G9C U10C U11C C12G C13G,1.04
14,U7G U8C G9C U10C U11C C12G C13U,1.04
15,U7G U8C G9A U11A C12A C13U,1.11
16,U7G U8C G9A U11A C12A C13G,1.07
17,U7G U8C G9A U11A C12A C13A,1.08
18,U7G U8C G9C U10C U11G C13G,1.14
19,U7G U8C G9C U10C U11G C13A,1.07
20,U7G U8C G9C U10C U11G C13U,1.07
21,U7G U8C G9A U10G U11G C12G C13U,1.14
22,U7G U8C G9A U10G U11G C12G C13A,1.13
23,U7G U8C G9A U10G U11G C12G C13G,1.2
